The target of the assay is calmodulin (calcium-loaded, holo-CaM) (UniProt P0DP23). The assay can be described thus: other fluorescence titration + ITC.

For ASAHWGQRALQGAQAVAAAQRLVSAAALMTQ [P454 H477S-I479A peptide], the “fold decrease of affinity for CaM against P454” value (shortened to “fold decrease of affinity”) is roughly 20 fold.

On to ASAHWGQRALQGAQAVAAAQRAVSAAALMTQ [P454 L475A-H477S-I479A peptide], for which the “fold decrease of affinity” value is roughly 20 fold.

ASAHWGQEALQGAQAVAAAQELVHAIALMTQ [P454_(R12E) peptide (P454 with R461 and R474 substituted by glutamate)]: the equilibrium dissociation constant (Kd) is 22.7 µM.

As to ASAHAGQRAAQGAQAVAAAQRLVHAIALMTQ [P454 W458A-L463A peptide], the “fold decrease of affinity” value amounted to 4 fold.

What is called Kd is the free concentration of one partner at which half of the binding sites on the other are occupied at equilibrium, for simple one-to-one binding.

The values are drawn from publication doi:10.1101/2020.09.14.296129 (bioRxiv, 2020).
